Assay results as given in patent publication US20150231240A1, “ANTI-C16ORF54 ANTIBODIES AND METHODS OF USE THEREOF” (priority 2012, published 2015).

B1: R29-7-2A: murine anti-C16orf54 monoclonal antibody, IgG2b; VH SEQ ID NO: 4, VL SEQ ID NO: 6 (antibody, V domains shown)
VH: MLLGLKWVFFVVFYQGVPCEVQLVESGGGLIQPKGSLKLSCVASGFSFNTHAMNWVRQAPGKGLEWVARIRSKSNNYARYYADSVKDRFTISRDDSQSILYLQMNNLKTEDTAMYYCVKQGDGGFAYWGQGTLVTVSA
VL: MDSQAQVLMLLLLWVSGTCGDIVMSQSPSSLAVSVGEKVTMSCKSSQSLLYSSNQKNYLAWYQQRPGQSPKLLIYWASARESGVPDRFTGSGSGTDFTLTISSVKAEDLAVYYCQQYYSYPPTFGAGTKVELK
modifications: R29-7-2A heavy chain variable region; R29-7-2A light chain variable region
B2: R29-8-75B: murine anti-C16orf54 monoclonal antibody; VH SEQ ID NO: 56, VL SEQ ID NO: 58 (antibody, V domains shown)
VH: MDSRLNLVFLVLILKGVQCDVQLVESGGGLVQPGGSRKLSCAASGFTFSRFGMHWVRQAPEKGLEWVAYISSGSSTIYYADTVKGRFTISRDNPKNTLFLQMTSLRSEDTAMYYCARVDYDVALAYWGQGTLVTVSA
VL: MKLPVRLLVLMFWIPASSSGVLMTQTPLSLPVSLGDQASISCRSSQSIVHRNGNTYLEWYLQKPGQSPKLLIYKVSNRFSGVPDRFSGSGSGTDFTLKISRVEAEDLGVYYCFQGSQWTFGGGTKLEIK
modifications: R29-8-75B heavy chain variable region; R29-8-75B light chain variable region
B3: R29-8-58C: murine anti-C16orf54 monoclonal antibody; VH SEQ ID NO: 40, VL SEQ ID NO: 42 (antibody, V domains shown)
VH: MNFGFSLIFLVLVSKGVQCEVKLVESGGGLVKPGGSLKFSCAASGFTFSSYAVSWVRQTPEKRLEWVASITSGGRSYYPDSVKGRFTISRDNARSMLYLHMSSLRSEDTAMYYCTRGWDENDLWGQGTTLTVSS
VL: MKLPVRLLVLMFWIPASSSDVVMTQTPLSLFVSLGDQASISCRSSQSLLYSNGNTYLHWYLQRPGQSPQLLIYKVSNRFSGVPDRFSGSGSGTDFTLKISRVEAEDLGVYFCSQTTHVPWTFGGGTKLEIK
modifications: R29-8-58C heavy chain variable region; R29-8-58C light chain variable region

Assays:
[1] = test system: human C16orf54 extracellular domain peptides; experiment: C16orf54 peptide ELISA, human extracellular domain peptides; type: binding; details: human, cyno, or mouse extracellular domain peptides, not told apart; 10 μg/ml antibody
Procedure: (§1) Anti-C16orf54 antibodies which bind to human C16orf54, including antibodies that are crossreactive with cyno C16orf54, were tested for their binding to various peptides derived from C16orf54 in a peptide ELISA. A 384-well high binding black microplate (Greiner) was incubated with 2 μg/ml of protein (human, cyno, or mouse extracellular domain peptides) for 16 hours, incubated for 1 hr with a blocking buffer (PBS with 5% Fetal Bovine Serum), washed four times with TBS with Tween, incubated for 1 hour with 10 μg/ml of anti-C16orf54 antibody, washed four times with TBS with Tween, incubated for 1 hour with 10 μg/ml of Peroxidase-AffiniPure Goat Anti-Mouse IgG, Fcγ Fragment Specific (Jackson ImmunoResearch), washed four times with TBS with Tween, and peroxidase was detected with a luminometer (Molecular Devices) upon addition of SuperSignal® ELISA Pico Chemiluminescent Substrate (Thermo Scientific). The luminescence signal was determined.

[2] = biological target: T1, human C16orf54 extracellular domain peptides (Homo sapiens, UniProt Q6UWD8); experiment: as above; type: binding; details: peptide ELISA, 10 μg/ml antibody
T1 sequence (Q6UWD8 1-31): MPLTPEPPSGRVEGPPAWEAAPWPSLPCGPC
Procedure: as §1

[3] = test system: KG-1 (acute myeloid leukemia) xenograft; type: in vivo, NOD-SCID mice
Procedure: Subcutaneous tumors are generated by injection of 1×10^7 cancer cells in a mixture of PBS (without magnesium or calcium) and BD Matrigel™ (BD Biosciences) at a 1:1 ratio in the right flank of female SCID or nu^−/− mice. The injected total volume per mouse is […] with 50% being Matrigel (BD Biosciences). Mice are randomized once tumors reach a size between 65-200 mm^3. Antibodies are administered weekly, and body weights and tumors are measured once and twice weekly, respectively. Tumor volume is calculated as described (van der Horst et al. (2009) Neoplasia 11: 355-364). As a negative control, mice are injected with either purified mouse IgG or PBS; or a purified monoclonal antibody that recognizes an antigen other than C16orf54.
Anti-C16orf54 antibodies were tested for their anti-tumor activity in an animal-tumor model. For these studies, the cell line KG-1 (acute myeloid leukemia) was obtained from ATCC and cultured according to the suppliers' protocols. Animals were obtained from Taconic (Hudson, N.Y.). Studies were conducted with anti-C16orf54 antibodies and antibody-drug conjugates (ADCs) of these antibodies.
In these experiments, 4-6 week-old immunodeficient NOD-SCID female mice were used for the KG-1 tumor model. Mice were subcutaneously injected on the right flank with 6×10^6 viable cells (KG-1) in a mixture of PBS (without magnesium or calcium) and BD Matrigel™ (BD Biosciences). Once the tumor reached a size between 65-200 mm^3 mice were randomized. Anti-C16orf54 antibodies were administered weekly, and bodyweights and tumors were measured once and twice weekly, respectively. Tumor volume was calculated as described (van der Horst et al., supra). Experiments were performed on groups of at least eight animals per experimental point.
Statistical significance between treatment and control groups was calculated using the Graphpad Prism® software package and applying Student's two-tailed t-test. A p-value of less than 0.05 was considered significant.

[4] = biological target: T2, huC16orf54 (cells expressing C16orf54) (Homo sapiens, UniProt Q6UWD8); experiment: Competition ELISA to establish relative binding properties; details: hybridoma supernatant; 2 hours with competing mixture of antibodies of a different isotype
T2 construct: expressed in transfected cells; host or cells: murine sarcoma cell line, retrovirally transduced (inferred from b529 and b531; b587 says only 'cells expressing C16orf54')
T2 sequence (Q6UWD8 1-224): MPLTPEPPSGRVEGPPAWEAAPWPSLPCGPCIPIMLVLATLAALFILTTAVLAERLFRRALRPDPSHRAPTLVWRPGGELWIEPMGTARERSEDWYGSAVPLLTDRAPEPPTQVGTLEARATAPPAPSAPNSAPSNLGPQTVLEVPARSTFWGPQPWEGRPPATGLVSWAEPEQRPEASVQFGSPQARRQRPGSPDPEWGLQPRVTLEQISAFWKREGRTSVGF
Procedure: Another competition ELISA was performed to establish relative binding properties. Individual anti-huC16orf54 isotyped (e.g., IgG2a) antibody containing hybridoma supernatants were allowed to bind to huC16orf54 in individual wells of an ELISA plate containing cells expressing C16orf54. After 30 min, the wells were washed. Then individual wells of the ELISA plate were incubated for 2 hours with either buffer or a competing mixture of anti-huC16orf54 isotyped antibodies (of a different isotype, e.g., IgG1 and IgG2b in the case of an IgG2a antibody). After washing, the wells were incubated with a specific secondary antibody (for example, Jackson Immunologicals Goat×IgG2a HRP—Product#115-035-206) and detected with SuperSignal® ELISA Pico Chemiluminescent substrate (Thermo Scientific—Product#37069). For each anti-huC16orf54 isotyped (e.g., IgG2a) antibody containing hybridoma supernatant, relative binding properties were calculated as follows: [(Average luminescence in wells incubated with buffer)−(Average luminescence in wells incubated with mixture of anti-huC16orf54 isotyped antibodies of a different isotype)]/[(Average luminescence in wells incubated with buffer)].

[5] = biological target: T3, N-terminal 32 amino acids of huC16orf54 (Homo sapiens, UniProt Q6UWD8); experiment: Affinity measurements of purified antibodies on OctetQK384; type: binding; details: purified antibody, streptavidin sensors coated with N-terminal 32 amino acids of huC16orf54 coupled to biotin
T3 sequence (Q6UWD8 1-32 limits assumed): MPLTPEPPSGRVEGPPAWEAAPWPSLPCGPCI
Procedure: Affinity measurements of purified anti-huC16orf54 antibodies were carried out on the OctetQK384® sytem (ForteBio). After coating streptavidin sensors with the N-terminal 32 amino acids of huC16orf54 coupled to biotin at the C-terminus, association and dissociation of purified anti-huC16orf54 antibodies was monitored. KD values were derived using ForteBio's software.

[6] = biological target: T3, N-terminal 32 amino acids of huC16orf54; experiment: Off-rate screen of hybridoma supernatants on OctetQK384 (biolayer interferometry); type: binding; details: calculated off-rate
Procedure: Eight anti-huC16orf54 monoclonal antibodies were further screened for binding and subsequent off-rate analysis using the OctetQK384® sytem (ForteBio). Hybridoma supernatants were screened for association to and dissocation from streptavidin sensors coated with the N-terminal 32 amino acids of huC16orf54 coupled to biotin, and the calculated offrates (kdis) are shown in Table 31. Cloned hybridomas with […] off-rates were carried forward for antibody purification.

human C16orf54 = biological target: T4, human C16orf54 (Homo sapiens, UniProt Q6UWD8); experiment: Flow cytometry reactivity with sarcoma cells expressing human C16orf54 (fold change over isotype); type: binding
T4 construct: expressed in transfected cells; host or cells: murine sarcoma cells (D42M1-huC16orf54)
T4 sequence (Q6UWD8 1-224): T2 sequence (Q6UWD8 1-224)
Procedure: (§2) Anti-C16orf54 antibodies which bound to human C16orf54 were tested for their reactivity with human C16orf54 and their crossreactivity with C16orf54 from cynomolgous monkeys (cyno C16orf54) using flow cytometry. Sarcoma cells transfected with and expressing human C16orf54 or cyno C16orf54 were washed with PBS with 0.1% BSA, incubated with FcX receptor blocking solution (BioLegend) for 15 minutes, incubated with 10 μg/ml of anti-C16orf54 antibody for 1 hour at 4° C., washed twice with PBS with 0.1% BSA, incubated with 20 μg/ml of R-Phycoerythrin-AffiniPure F(ab′)2 Fragment Goat Anti-Mouse IgG, Fcγ Fragment Specific (Jackson ImmunoResearch) for 30 minutes at 4° C., washed twice with PBS with 0.1% BSA, incubated with the viability dye TO-PRO-3 iodide (Life Technologies), and immediately analyzed on a MACSQuant Analyzer instrument (Miltenyi). For each cell line and anti-C16orf54 antibody, a fold change was derived by dividing the median fluorescence intensity for Phycoerythrin in the live cell population for the anti-C16orf54 antibody by the median fluorescence intensity for Phycoerythrin in the live cell population for the IgG isotype control antibody.

C16orf54 ECD peptides = experiment: Peptide crossblocking (Table 36); type: binding
[7] = test system: cyno C16orf54 extracellular domain peptides; experiment: C16orf54 peptide ELISA, cyno extracellular domain peptides; type: binding; details: 10 μg/ml antibody
cyno C16orf54 extracellular domain peptides, sequence (as listed by the source): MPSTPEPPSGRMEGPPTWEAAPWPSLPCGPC
Procedure: as §1

[8] = biological target: T5, extracellular domain of c16orf54 (amino acids 1-31) fused to human IgG1 Fc (Homo sapiens, UniProt Q6UWD8); experiment: C16orf54 peptide-Fc fusion protein ELISA; type: binding; details: serial dilution of antibody; HRP-conjugated anti mouse secondary
T5 construct: the extracellular domain of c16orf54 (amino acids 1-31) either N terminal or C-terminal to a human IgG1 Fc domain; made in house; host or cells: 293 T cells, transient; Protein A purification
T5 sequence (Q6UWD8 1-31 limits assumed): T1 sequence (Q6UWD8 1-31)
Procedure: Anti-C16orf54 antibodies which bind to human C16orf54, including antibodies that are crossreactive with cyno C16orf54, were tested for their binding to various peptides derived from C16orf54 that were fused to human IgG (e.g., IgG1) constant regions to generate various peptide-Fc fusion proteins in an Fc-based ELISA. An exemplary Fc sequence comprises an IgG1 Hinge region sequence and IgG1 CH3 and […] domain sequences.
The fusion proteins were transiently expressed in 293 T cells. Protein was purified from the 293 expression supernatants by Protein A-based affinity purification. Exemplary C16 peptide-Fc fusion constructs that were made and purified are shown with their protein yield in Table 38. ELISA assays were performed by coating 384 well plates with the fusion proteins overnight at 4C. Antibodies were analyzed by serial dilution with concentrations ranging from 40 ug/mL to […]. Binding was detected with an HRP-conjugated anti mouse secondary antibody.

cyno C16orf54 = experiment: Flow cytometry cross-reactivity with sarcoma cells expressing cyno C16orf54 (fold change over isotype); type: binding, cynomolgous monkeys; details: 10 μg/ml antibody
cyno C16orf54, sequence (as listed by the source): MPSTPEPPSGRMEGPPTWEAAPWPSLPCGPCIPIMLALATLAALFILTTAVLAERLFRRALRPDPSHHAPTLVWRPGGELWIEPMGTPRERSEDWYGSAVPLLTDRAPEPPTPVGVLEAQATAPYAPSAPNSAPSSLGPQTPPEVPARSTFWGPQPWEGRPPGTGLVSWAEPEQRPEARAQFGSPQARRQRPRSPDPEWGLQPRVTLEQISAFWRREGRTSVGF
Procedure: as §2

Row | Molecule | binding to peptides derived from the extracellular domain of C16orf54 (peptide ELISA) [1] | Human ECD & ECD fragments bound by antibody [2] | tumor growth inhibition (in words) ([3]; KG-1 xenograft, compared to control IgG, antibodies weekly) | TGI (tumor growth inhibition) ([3]; Table 42, KG-1 AML model, NOD-SCID mice, weekly administration) [%] | Mean (tumor volume) ([3]; Table 42, KG-1 AML model, NOD-SCID mice, weekly administration, in mm³ (unit assumed)) | relative binding properties: signal loss upon incubation with competition mixture [4] | kdis [5] [s⁻¹] | kon [5] [M⁻¹ s⁻¹] | kdis [6] [s⁻¹] | binding to C16orf54-expressing cells (dual binders) (human C16orf54) | binding to human C16orf54 (flow cytometry) (human C16orf54; sarcoma cells expressing human C16orf54, 10 μg/ml antibody) | Peptide crossblocking (C16orf54 ECD peptides) | Cyno ECD bound by antibody [7] | binding to peptide-Fc fusion proteins (Fc-based ELISA) [8] | Median fold change relative to IgG control in F279-cyno-C16orf54 cells (cyno C16orf54)
1 | B1 | bind to the various peptides derived from the extracellular domain (ECD) of C16orf54 | aa1-31, aa1-15, aa9-24 | did not induce any statistically significant tumor growth inhibition | −17 | 2572.5 | little signal loss upon incubation with the competition mixture | 4.12e-05 ± 9.7e-06 | 31900 ± 4600 | 0.00707 | bind to C16orf54-expressing cells | bind human C16orf54 | aa1-31 | – | – | –
2 | B2 | bind to the various peptides derived from the extracellular domain (ECD) of C16orf54 | aa1-31, aa1-15, aa9-24 | – | – | – | – | – | – | – | bind to C16orf54-expressing cells | – | aa1-31, aa9-24 | aa1-31 | able to bind to the peptide-Fc fusion proteins | –
3 | B3 | – | – | – | – | – | – | – | – | – | – | – | – | – | – | 1.4
